Data set [1] has as its target T1, LdTOPIA (Leishmania donovani DNA topoisomerase IA) (Leishmania donovani, UniProt A0A3S7WW83).
T1 construct: gene LdCL_210006600; full length, 7xHis-LdTOPIA-6xHis (809 aa), expressed in L. tarentolae LtT7TR
T1 sequence (A0A3S7WW83 1-809): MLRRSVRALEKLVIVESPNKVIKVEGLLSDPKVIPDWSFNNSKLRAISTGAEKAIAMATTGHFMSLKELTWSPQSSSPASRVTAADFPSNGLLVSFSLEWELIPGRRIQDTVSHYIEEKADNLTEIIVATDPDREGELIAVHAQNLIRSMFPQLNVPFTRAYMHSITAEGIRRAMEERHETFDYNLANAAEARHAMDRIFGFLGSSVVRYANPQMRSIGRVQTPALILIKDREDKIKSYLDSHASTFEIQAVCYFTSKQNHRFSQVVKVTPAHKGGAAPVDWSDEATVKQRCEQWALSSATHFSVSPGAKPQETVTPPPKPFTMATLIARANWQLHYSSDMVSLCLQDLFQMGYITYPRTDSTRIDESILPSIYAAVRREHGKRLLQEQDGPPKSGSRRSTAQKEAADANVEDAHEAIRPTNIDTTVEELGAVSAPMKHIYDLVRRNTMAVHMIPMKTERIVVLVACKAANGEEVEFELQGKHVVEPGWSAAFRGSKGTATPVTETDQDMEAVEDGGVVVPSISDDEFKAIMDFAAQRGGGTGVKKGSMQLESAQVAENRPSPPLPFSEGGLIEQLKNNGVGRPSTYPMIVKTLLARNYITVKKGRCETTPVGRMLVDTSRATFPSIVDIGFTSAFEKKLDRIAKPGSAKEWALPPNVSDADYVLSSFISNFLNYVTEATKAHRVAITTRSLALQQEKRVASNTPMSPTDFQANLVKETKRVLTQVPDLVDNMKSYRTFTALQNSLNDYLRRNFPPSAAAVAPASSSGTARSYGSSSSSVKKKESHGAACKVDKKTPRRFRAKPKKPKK
Description: plasmid DNA relaxation assay with purified LdTOPIA ([…] drug), agarose gel. It counts as biochemical.

A further data set has as its target T2, Human TOPIB (Homo sapiens, UniProt P11387).
T2 construct: gene TOP1
T2 sequence (P11387 2-765): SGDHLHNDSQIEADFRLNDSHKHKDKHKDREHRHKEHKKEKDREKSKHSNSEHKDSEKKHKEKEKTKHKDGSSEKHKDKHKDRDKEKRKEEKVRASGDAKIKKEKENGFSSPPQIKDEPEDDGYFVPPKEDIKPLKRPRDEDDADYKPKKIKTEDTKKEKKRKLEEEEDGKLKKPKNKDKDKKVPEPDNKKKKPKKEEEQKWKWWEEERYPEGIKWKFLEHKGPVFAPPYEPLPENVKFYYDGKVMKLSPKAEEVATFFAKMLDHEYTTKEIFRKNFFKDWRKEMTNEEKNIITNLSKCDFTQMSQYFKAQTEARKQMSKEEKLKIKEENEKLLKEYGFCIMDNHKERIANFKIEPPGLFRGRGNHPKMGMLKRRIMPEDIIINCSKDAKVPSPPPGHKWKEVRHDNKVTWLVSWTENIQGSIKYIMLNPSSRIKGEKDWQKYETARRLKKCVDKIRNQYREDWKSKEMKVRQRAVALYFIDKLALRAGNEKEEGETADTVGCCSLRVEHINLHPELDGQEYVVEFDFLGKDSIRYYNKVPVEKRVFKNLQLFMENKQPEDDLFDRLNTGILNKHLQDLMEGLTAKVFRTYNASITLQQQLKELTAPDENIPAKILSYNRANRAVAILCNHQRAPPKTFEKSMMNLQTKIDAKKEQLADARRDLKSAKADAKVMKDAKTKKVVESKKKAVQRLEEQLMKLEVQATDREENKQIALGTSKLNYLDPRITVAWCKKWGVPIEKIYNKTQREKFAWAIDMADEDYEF
The data set can be described thus: plasmid DNA relaxation assay with commercial human TOPIB, […] drug (Fig. S3C). Type of data set: biochemical.

Data set [2] has as its target T3, LdTOPIA (DNA topoisomerase IA) (Leishmania donovani DD8, UniProt A0A3S7WW83 1-809).
T3 sequence: T1 sequence (A0A3S7WW83 1-809)
The data set can be described thus: fluorescence anisotropy; 30 nM DNA, 0.5 mM EDTA; 50 mM Tris pH 7.5, 100 mM NaCl, 0.5 mM DTT, 0.5 mM EDTA, 5% glycerol, 15 min, 25 °C (EMSA gel at 4 °C). The following applies: protein: recombinant, tags: N-term 7xHis, C-term 6xHis.

Data set [3] concerns the target T3, LdTOPIA (DNA topoisomerase IA). The data set can be described thus: fluorescence anisotropy; 50 mM Tris pH 7.5, 100 mM NaCl, 0.5 mM DTT, 0.5 mM EDTA, 5% glycerol, 15 min, 25 °C (EMSA gel at 4 °C). The note with it: protein: recombinant; tags: N-term 7xHis, C-term 6xHis; label: 5' FAM on RNA strand; blunt. Background: Fluorescence polarisation rises when a labelled molecule tumbles more slowly, as on binding a larger partner.

Data set [4] concerns the target T4, RNase H I, catalytically inactive D210N (Homo sapiens, UniProt O60930 1-286, D210N).
T4 sequence: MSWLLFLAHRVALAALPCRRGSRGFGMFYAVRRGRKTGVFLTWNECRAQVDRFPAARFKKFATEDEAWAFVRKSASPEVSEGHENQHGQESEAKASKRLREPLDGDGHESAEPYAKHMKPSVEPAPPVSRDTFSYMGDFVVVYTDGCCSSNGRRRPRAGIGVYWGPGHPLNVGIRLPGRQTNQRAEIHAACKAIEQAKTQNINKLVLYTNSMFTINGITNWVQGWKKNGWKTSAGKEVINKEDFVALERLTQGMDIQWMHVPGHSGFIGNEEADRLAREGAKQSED
Description: fluorescence anisotropy; 30 nM duplex, 2-200 nM protein; 50 mM Tris pH 7.5, 100 mM NaCl, 0.5 mM DTT, 0.5 mM EDTA, 5% glycerol, 15 min, 25 °C (EMSA gel at 4 °C). The following applies: protein: recombinant; tags: His (pET15b; Ni-NTA purified); label: 5' FAM on RNA strand; blunt.

A word on the Kd: it is the constant that tells how readily two partners part at equilibrium.

Consider `CN(C)CCCN1c2ccccc2CCc2ccccc21` [imipramine], for which, in data set [1], the “plasmid DNA relaxation assay with purified LdTOPIA (10, 20 and 40 μM drug), agar” value is “Both imipramine and norclomipramine (NCL) could inhibit the DNA relaxation by LdTOPIA”. On to `CC[C@@]1(O)C(=O)OCc2c1cc1n(c2=O)Cc2cc3ccccc3nc2-1` [CPT, Camptothecin], for which the “plasmid DNA relaxation assay with commercial human TOPIB, 10 μM drug (Fig. S3C)” value on Human TOPIB was “Etoposide and CPT could effectively inhibit plasmid relaxation of the TOPIB and TOPII respectively (Fig. S3C)”. As to TATTGGGCGCTCTTCCGCTTCCTCGCTCACTG (ssDNA) [32-nt ssDNA, FAM], in data set [2] (label: 5' FAM), the Kd stood at 3.16 ± 0.12 nM.

B1: 32-bp dsDNA, FAM (dsDNA)
DNA 1: TATTGGGCGCTCTTCCGCTTCCTCGCTCACTG
DNA 2: CAGTGAGCGAGGAAGCGGAAGAGCGCCCAATA
As for B1, the Kd in data set [2] (label: 5' FAM on strand 1, blunt) turned out to be 8.1 ± 0.23 nM.

B2: DNA:RNA duplex, FAM-RNA (DNA:RNA)
RNA: UAUUGGGCGCUCUUCCGCUUCCUCGCUCACUG
DNA: B1 DNA 2
B2: the results for the binding result in data set [3] and in data set [4] were “no binding” and “binds”, respectively.

These data come from paper PMC11021369, “Resolving the polycistronic aftermath: Essential role of topoisomerase IA in preventing R-loops in Leishmania” (The Journal of Biological Chemistry, 2024).
